For one data set, the system named is H2009 xenograft. The note with it: in vivo, 1.5 h; cited from earlier work.
The conditions of data set [1]: cited from earlier work.
Data set [2] deals with αvβ6 integrin. More on the design: method as in PMID 27980050. The note with it: Ga complexes; read-out: Affinity IC50 (nM), αvβ6 integrin; cited from earlier work.
For data set [3] the following is noted: in vivo; cited from earlier work.
In the next data set the test system is PSMA. On the set-up: method as in PMID 25999035. The note with it: Ga complexes; read-out: Affinity IC50 (nM), PSMA; cited from earlier work.
The nature of data set [4]: Octanol/PBS distribution coefficient log D pH 7.4. Format: physicochemical.
Data set [5] is described as follows: Biodistribution, LNCaP xenograft. The note with it: in vivo, 60 min p.i., estimated from PET ROI analysis, ± SD.
A short description of data set [6]: Biodistribution in HT29 tumor-bearing nude mice. It counts as in vivo, mouse. The note with it: mouse, in vivo, 60 min p.i. As to the method:
For in vivo evaluation of [^68Ga]Ga-TRAP(NT4)3 the NTS1-positive human colorectal adenocarcinoma cells HT29 were injected in nude mice to generate a subcutaneous tumor. The radioligand was injected in the tail vein of the mice and the biodistribution was determined 60 and 90 min after tracer injection. […] The clearance rate of [^68Ga]Ga-TRAP(NT4)3 in these excretion organs was apparently low. […] (1.44 %ID/g). Blocking experiments were performed to confirm the specificity of the tumor uptake of [^68Ga]Ga-TRAP(NT4)3 in vivo. Therefore, TRAP(NT4)3 (20 nmol) or NT4 (100 nmol) were co-injected together with the radiotracer to define the nonspecific uptake of the tracer in the tumor region. […] Apart from the intestine, the uptake in all other organs was not affected by the blocking substances (Table 2), confirming the receptor-mediated uptake of [^68Ga]Ga-TRAP(NT4)3, as it was reported that NTS receptors are expressed in the small intestine of mice.
All animal experiments were performed in compliance with the protocols approved by the local Animal Protection Authorities (Regierung Mittelfranken, Germany, no. 54-2532.1-15/08). Female athymic NMRI nude mice (nu/nu) were obtained from Harlan Winkelmann GmbH (Borchen, Germany) at four weeks of age and were kept under standard conditions (12 h light/dark) with food and water available ad libitum for at least five weeks. HT29 tumors were generated as described before.
HT29 xenografted nude mice were injected with [^68Ga]Ga-TRAP(NT4)3 into a tail vein (2.5–7.5 MBq/mouse). The animals were killed by cervical dislocation 60 or 90 min p.i. The tumors, other tissues (lung, liver, kidneys, heart, spleen, brain, muscle, femur, and intestine) and blood were removed and weighed. Radioactivity of the samples was measured using a γ-counter and expressed as the percentage of injected dose per gram of tissue (%ID/g), from which tumor-to-blood ratios were calculated. Blocking experiments were carried out by co-injecting randomly chosen mice with TRAP(NT4)3 (20 nmol/mouse) or NT4 (100 nmol/mouse) together with the radiotracer. These mice were killed by cervical dislocation at 60 min p.i., and organs and tissue were removed, weighed, and counted as described above.

The target of another data set is human NTS1 (Homo sapiens, UniProt P30989). Put plainly: Competitive radioligand binding assay, NTS1. The note with it: Ki (NTS1, nM), membranes of CHO cells stably expressing human NTS1; mean ± SEM, 4-8 experiments. How it is done: (§1) Receptor binding data were performed as described previously. […] NTS2 binding was conducted using homogenates of membranes from HEK 293 cells transiently transfected with pcDNA3.1 carrying the human NTS2 gene (Missouri S&T cDNA Resource Center (UMR), Rolla, MO, USA) using the Mirus TransIT-293 transfection reagent (MoBiTec, Göttingen, Germany) according to the manufacturer’s protocol.
Chain of human NTS1 (P30989 whole entry): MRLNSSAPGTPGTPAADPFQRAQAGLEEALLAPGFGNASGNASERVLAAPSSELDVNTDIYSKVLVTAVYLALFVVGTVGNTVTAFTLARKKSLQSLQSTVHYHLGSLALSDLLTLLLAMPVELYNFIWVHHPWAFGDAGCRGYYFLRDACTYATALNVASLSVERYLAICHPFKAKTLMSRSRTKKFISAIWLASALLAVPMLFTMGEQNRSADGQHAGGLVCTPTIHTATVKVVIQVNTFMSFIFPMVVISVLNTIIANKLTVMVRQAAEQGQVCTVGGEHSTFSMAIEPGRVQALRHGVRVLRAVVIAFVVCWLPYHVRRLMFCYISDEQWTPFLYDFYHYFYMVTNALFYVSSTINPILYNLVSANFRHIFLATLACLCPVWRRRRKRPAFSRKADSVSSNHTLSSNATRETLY
(§2) Data analysis of the competition binding curves from the radioligand displacement experiments was done by non-linear regression analysis when applying the algorithms of the PRISM 6.0 software package (GraphPad Software, San Diego, CA, USA). EC50 values were derived from each dose-response curve and were subsequently transformed into the corresponding Ki values by applying the equation of Cheng and Prusoff. Mean Ki values and the corresponding S.E.M. values (standard error of the mean) were determined by analyzing four to eight individual experiments.

The next data set has as its target T1, human NTS2 (Homo sapiens, UniProt O95665).
T1 construct: host or cells: HEK 293 cells (transient transfection, pcDNA3.1)
Put plainly: Competitive radioligand binding assay, NTS2. How it is done: as §1, §2

For data set [7], the system named is αvβ6 integrin. Put plainly: Affinity to αvβ6 integrin. Format: binding. The note with it: Ga complexes.
The conditions of data set [8]: in vivo, H2009 xenograft, 90 min p.i., estimated from PET ROI analysis, ± SD.

Read-outs that look alike come from different tables or passages of the source.

T1 sequence (O95665 whole entry): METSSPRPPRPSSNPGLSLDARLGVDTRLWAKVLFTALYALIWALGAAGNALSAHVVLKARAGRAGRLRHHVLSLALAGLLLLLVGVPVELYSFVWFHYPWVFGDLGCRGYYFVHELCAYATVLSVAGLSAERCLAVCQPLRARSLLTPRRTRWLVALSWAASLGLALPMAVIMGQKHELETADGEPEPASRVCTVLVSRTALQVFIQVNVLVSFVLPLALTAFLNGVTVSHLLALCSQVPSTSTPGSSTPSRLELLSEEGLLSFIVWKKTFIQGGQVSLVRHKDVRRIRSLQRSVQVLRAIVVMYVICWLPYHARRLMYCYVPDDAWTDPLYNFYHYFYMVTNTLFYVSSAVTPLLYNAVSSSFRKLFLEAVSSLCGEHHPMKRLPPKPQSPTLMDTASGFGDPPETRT

For “TRAP(AvB6)1: Ga-monomer of c(FRGDLAF-p[NMe]K), αvβ6 integrin (cyclo(FRGDLAF); not fully specified (C-terminus); also: TRAP chelator Ga complex, attachment site not given here)”, in the data set with H2009 xenograft, the “Blood %ID/g” value was 0.17 %ID/g, the “Kidney %ID/g” value was 4.3 %ID/g, the “Liver %ID/g” value is given as 0.36 %ID/g and the “Muscle %ID/g” value is 0.06 %ID/g. The “Tumor %ID/g” value in the data set on H2009 xenograft was 0.65 %ID/g. Moreover, the “log D pH 7.4” value in data set [1] is reported as −3.7. For the same molecule, the half-maximal inhibitory concentration (IC50) in the data set with αvβ6 integrin [2] was 0.26 nM.
As to “Arg^8-Arg^9-Pro^10-Tyr^11-Ile^12-Leu^13-OH [NT(8–13)]”, the biological half-life entry in [3] was “only a few minutes, or even less”.
Regarding `O=C(O)CC[C@H](NC(=O)N[C@@H](CCCCNC(=O)CCCCCCC(=O)NCCCC[C@H](NC(=O)[C@H](Cc1ccccc1)NC(=O)[C@H](Cc1ccccc1)NC(=O)CCC(C(=O)O)N1CCN(CC(=O)O)CCN(CC(=O)O)CCN(CC(=O)O)CC1)C(=O)O)C(=O)O)C(=O)O` (stereo partly shown) [DOTAGA-DUPA], in the data set on PSMA, the concentration for half-maximal inhibition (IC50) was 36 nM. Also, in data set [4], the logD was -3.6 ± 0.2. In addition, the tissue uptake at 1 h in data set [5] (read-out: Blood %ID/g) was 2.5 ± 0.14 %ID/g; in data set [5] (read-out: Kidney %ID/g), 29 ± 7 %ID/g; in data set [5] (read-out: Liver %ID/g) it was 2 ± 0.17 %ID/g; in data set [5] (read-out: Muscle %ID/g) it was 1.2 ± 0.13 %ID/g; in data set [5] (read-out: Tumor %ID/g), 2 ± 0.2 %ID/g.
Consider `CC(C)C[C@H](NC(=O)[C@@H](NC(=O)[C@H](Cc1ccc(O)cc1)NC(=O)[C@@H]1CCCN1C(=O)[C@H](CCCCN)NC(=O)CN(CCCCN)C(=O)[C@@H](N)CCCCn1cc(CNC(=O)CCP(=O)(O)CN2CCN(CP(=O)(O)CCC(=O)NCc3cn(CCCC[C@H](N)C(=O)N(CCCCN)CC(=O)N[C@@H](CCCCN)C(=O)N4CCC[C@H]4C(=O)N[C@@H](Cc4ccc(O)cc4)C(=O)N[C@H](C(=O)N[C@@H](CC(C)C)C(=O)O)C(C)(C)C)nn3)CCN(CP(=O)(O)CCC(=O)NCc3cn(CCCC[C@H](N)C(=O)N(CCCCN)CC(=O)N[C@@H](CCCCN)C(=O)N4CCC[C@H]4C(=O)N[C@@H](Cc4ccc(O)cc4)C(=O)N[C@H](C(=O)N[C@@H](CC(C)C)C(=O)O)C(C)(C)C)nn3)CC2)nn1)C(C)(C)C)C(=O)O` [TRAP(NT4)3], for which the logD in data set [4] (octanol/PBS, Ga complex, ± standard deviation, first reported herein, read-out: log D pH 7.4) was -3.7 ± 0.1. The tissue uptake at 1 h in data set [6] (read-out: HT29 tumor uptake) was 1.74 %ID/g; in [6] (read-out: blood uptake), 0.13 %ID/g; in [6] (read-out: kidney uptake), 95 %ID/g; in data set [6] (read-out: liver uptake), 11 %ID/g; in data set [6] (read-out: muscle uptake) it was 0.09 %ID/g. In addition, the values for the Ki on human NTS1 and at human NTS2 were 0.47 ± 0.05 nM and 260 ± 50 pM, respectively.
Turning to `CC(C)C[C@@H]1NC(=O)[C@H](CC(=O)O)NC(=O)CNC(=O)[C@H](CCCNC(=N)N)NC(=O)[C@H](Cc2ccccc2)NC(=O)[C@H](CCCCNC(=O)CCc2cn(CCCNC(=O)CCP(=O)(O)CN3CCN(CP(=O)(O)CCC(=O)NCCCn4cc(CCC(=O)NCCCC[C@H]5C(=O)N[C@@H](Cc6ccccc6)C(=O)N[C@@H](CCCNC(=N)N)C(=O)NCC(=O)N[C@@H](CC(=O)O)C(=O)N[C@@H](CC(C)C)C(=O)N[C@@H](C)C(=O)N[C@@H](Cc6ccccc6)C(=O)N6CCC[C@@H]6C(=O)N5C)nn4)CCN(CP(=O)(O)CCC(=O)NCCCn4cc(CCC(=O)NCCCC[C@H]5C(=O)N[C@@H](Cc6ccccc6)C(=O)N[C@@H](CCCNC(=N)N)C(=O)NCC(=O)N[C@@H](CC(=O)O)C(=O)N[C@@H](CC(C)C)C(=O)N[C@@H](C)C(=O)N[C@@H](Cc6ccccc6)C(=O)N6CCC[C@@H]6C(=O)N5C)nn4)CC3)nn2)N(C)C(=O)[C@H]2CCCN2C(=O)[C@H](Cc2ccccc2)NC(=O)[C@H](C)NC1=O` [TRAP(AvB6)3], in the data set with αvβ6 integrin [7], the “Affinity factor monomer/trimer, αvβ6 integrin” value is given as 11. For the same molecule, the tissue uptake at 1.5 h in [8] (Blood %ID/g) was 1.9 ± 0.15 %ID/g; in data set [8] (Kidney %ID/g) it was 17.7 ± 6.5 %ID/g; in data set [8] (Liver %ID/g), 3.7 ± 0.14 %ID/g; in data set [8] (Muscle %ID/g) it was 0.71 ± 0.1 %ID/g; in [8] (Tumor %ID/g) it was 0.92 ± 0.08 %ID/g. The IC50 with αvβ6 integrin [2] is 0.023 nM.
With `CC(C)C[C@H](NC(=O)[C@@H](NC(=O)[C@H](Cc1ccc(O)cc1)NC(=O)[C@@H]1CCCN1C(=O)[C@H](CCCCN)NC(=O)CN(CCCCN)C(=O)[C@@H](N)CCCCn1cc(CNC(=O)CCP(=O)(O)CN2CCN(CP(=O)(O)CCC(=O)NCc3cn(CCCC[C@H](N)C(=O)N(CCCCN)CC(=O)N[C@@H](CCCCN)C(=O)N4CCC[C@H]4C(=O)N[C@@H](Cc4ccc(O)cc4)C(=O)N[C@H](C(=O)N[C@@H](CC(C)C)C(=O)O)C(C)(C)C)nn3)CCN(CP(=O)(O)CCC(=O)NCc3cn(CCCC[C@H](N)C(=O)N(CCCCN)CC(=O)N[C@@H](CCCCN)C(=O)N4CCC[C@H]4C(=O)N[C@@H](Cc4ccc(O)cc4)C(=O)N[C@H](C(=O)N[C@@H](CC(C)C)C(=O)O)C(C)(C)C)nn3)CC2)nn1)C(C)(C)C)C(=O)O` (single isomer, unassigned) [Ga-TRAP(NT4)3], affinity on human NTS1 was put at a Ki of 0.12 ± 0.03 nM.

A word on the IC50: it is the concentration that gives 50% inhibition. A word on the Ki: it is the dissociation constant of the complex between target and ligand, obtained from inhibition or displacement. Read a low Ki as higher affinity.

Values taken from PMC5374433, “Theranostic Value of Multimers: Lessons Learned from Trimerization of Neurotensin Receptor Ligands and Other Targeting Vectors” (Pharmaceuticals, 2017).
